Test results: publication PMC5940361, “Human LINE-1 retrotransposition requires a metastable coiled coil and a positively charged N-terminus in L1ORF1p” (eLife, 2018)

What was measured:
[1] = molecular target: hL1ORF1p-Δcons (non-conserved N-terminal portion of human L1ORF1p, GPHM1-E103) (human) (UniProt Q9UN81); experiment: SEC-MALS; hL1ORF1p-Δcons at 5.2 mM, Superdex 75 (10/300 GL), gel filtration buffer; monomer to dimer
[2] = molecular target: the molecule itself; experiment: SEC-MALS; Superdex 200 (10/300 GL), gel filtration buffer (10 mM HEPES pH 7.5, 300 mM NaCl, 1 mM DTT)

Row | Molecule | stoichiometry N [1] | stoichiometry N [2]
1 | hL1ORF1p-Δcons (non-conserved N-terminal portion of human L1ORF1p, GPHM1-E103) (from UniProt Q9UN81 1-103) (domain or fragment) | 2 | –
2 | hL1ORF1p-cc (coiled coil domain of human L1ORF1p, GPHMS53-Y152) (domain or fragment, residues printed before S53 in the construct's description (GPHMS53-Y152); not from L1ORF1p; human LINE-1 ORF1 protein (L1ORF1p) of the L1.3 element, residues S53-Y152, amplified from a plasmid with the M121A/M125I/M128I triple mutation; The M of GPHM probably stands at position 52 in place of Y52 (the structure is described as residues 52-152); also called L1ORF1p coiled coil domain; coiled coil …) GPHMSELREDIQTKGKEVENFEKNLEECITRITNTEKCLKELMELKTKARELREECRSLRSRCDQLEERVSAAEDEINEIKREGKFREKRIKRNEQSLQEIWDY | – | 3
3 | hL1ORF1p-ΔNTR (human L1ORF1p without the NTR, GPHMS53-M338) (domain or fragment, residues printed before S53 in the construct's description (GPHMS53-M338); not from L1ORF1p; also called remainder of human L1ORF1p; truncated trimer; not shown: His6, N-terminal, cleaved) GPHMSELREDIQTKGKEVENFEKNLEECITRITNTEKCLKELMELKTKARELREECRSLRSRCDQLEERVSAAEDEINEIKREGKFREKRIKRNEQSLQEIWDYVKRPNLRLIGVPESDVENGTKLENTLQDIIQENFPNLARQANVQIQEIQRTPQRYSSRRATPRHIIVRFTKVEMKEKMLRAAREKGRVTLKGKPIRLTADLSAETLQARREWGPIFNILKEKNFQPRISYPAKLSFISEGEIKYFIDKQMLRDFVTTRPALKELLKEALNMERNNRYQPLQNHAKM | – | 3
